Measured values as given in US20180244725.

Tested on: T1, R5 peptide
T1 sequence: SSKKSGSYSGSKGSKRRIL

## JMJD6 (Auxenochlorella protothecoides)
  enzymatic modification of R5 (Hydroxylation): resulted in no modifications

## JMJD6 (Nannochloropsos gaditana)
  enzymatic modification of R5 (Hydroxylation): resulted in no modifications

## LIPT1
  enzymatic modification of R5 (Lipidation): resulted in no modifications

## Protein Kinase A (PKA) (NEB P6000S)
  phosphorylation sites on R5 (LC-MS/MS): primary phosphorylation at Ser11, with very low levels of phosphorylation at Ser4, Ser7, and Ser1.6

## THAOC_04424
  enzymatic modification of R5 (Hydroxylation): resulted in no modifications

## THAOC_24272
  methylation of R5 (LC-MS, LC-MS/MS): the methylation occurs on all four lysine with no discernable preference or pattern

## THAOC_27572
  enzymatic modification of R5 (Hydroxylation): resulted in no modifications

## THAOC_37500
  methylation of R5 (LC-MS time course): A time course showing the incorporation of zero to 16 methyl groups into R5

## Tyrosinase from mushrooms (Sigma T3824)
  oxidation and polymerization of R5 (absorbance at 350 nm, SDS-PAGE): A time course was generated showing the production of oxidized R5 (FIGS. 6B-6C) and the subsequent spontaneous formation of R5 polymers
